In publication doi:10.1101/2020.08.28.272104:
pKd: −log10 of the molar value.

Target: triple-helical collagen peptide Ac-(GPO)2-GPO-GPQ-GLA-GQR-GIV-GLO-GQR-GER-(GPO)3G-NH2
Assay: ITC

## MMP-1(E200A), active-site mutant of matrix metalloproteinase 1 (enzyme)
  pKd: 6.30 to 6.60
  stoichiometry N: 1
